Source: publication PMC5175334

B1: full-length wild-type TRBP (TRBP-WT), lentivirally expressed in HDLECs [human] / S6K2 (S6 kinase 2), endogenous [human (endogenous in HDLEC)] (parent)
chain 1: MSEEEQGSGTTTGCGLPSIEQMLAANPGKTPISLLQEYGTRIGKTPVYDLLKAEGQAHQPNFTFRVTVGDTSCTGQGPSKKAAKHKAAEVALKHLKGGSMLEPALEDSSSFSPLDSSLPEDIPVFTAAAAATPVPSVVLTRSPPMELQPPVSPQQSECNPVGALQELVVQKGWRLPEYTVTQESGPAHRKEFTMTCRVERFIEIGSGTSKKLAKRNAAAKMLLRVHTVPLDARDGNEVEPDDDHFSIGVGSRLDGLRNRGPGCTWDSLRNSVGEKILSLRSCSLGSLGALGPACCRVLSELSEEQAFHVSYLDIEELSLSGLCQCLVELSTQPATVCHGSATTREAARGEAARRALQYLKIMAGSK
chain 2: MAAVFDLDLETEEGSEGEGEPELSPADACPLAELRAAGLEPVGHYEEVELTETSVNVGPERIGPHCFELLRVLGKGGYGKVFQVRKVQGTNLGKIYAMKVLRKAKIVRNAKDTAHTRAERNILESVKHPFIVELAYAFQTGGKLYLILECLSGGELFTHLEREGIFLEDTACFYLAEITLALGHLHSQGIIYRDLKPENIMLSSQGHIKLTDFGLCKESIHEGAVTHTFCGTIEYMAPEILVRSGHNRAVDWWSLGALMYDMLTGSPPFTAENRKKTMDKIIRGKLALPPYLTPDARDLVKKFLKRNPSQRIGGGPGDAADVQRHPFFRHMNWDDLLAWRVDPPFRPCLQSEEDVSQFDTRFTRQTPVDSPDDTALSESANQAFLGFTYVAPSVLDSIKEGFSFQPKLRSPRRLNSSPRAPVSPLKFSPFEGFRPSPSLPEPTELPLPPLLPPPPPSTTAPLPIRPPSGTKKSKRGRGRPGR

Variants of: B1
Test: proximity ligation assay (PLA) in cells
Settings: with S6K2 (S6 kinase 2), HDLECs transduced with TRBP-AA lentivirus (600 ml/80 000 cells), endogenous TRBP also present, parent: 31, read off a plot

| Variant | response (PLA events per HDLEC) |
| --- | --- |
| chain 1 S283A S286A | 20 |

Same assay, conditions: with S6K2 (S6 kinase 2), HDLECs transduced with TRBP-DD lentivirus (200 ml/80 000 cells), endogenous TRBP also present, parent: 31, read off a plot

| Variant | response (PLA events per HDLEC) |
| --- | --- |
| chain 1 S283D S286D | 7 |

Variants of: B1
Test: co-immunoprecipitation, band quantification
Settings: with S6K2, lentivirally over-expressed in HEK293 cells; HEK293 cells over-expressing S6K2 and TRBP-WT or TRBP-DD; parent: 1; read off a plot

| Variant | ratio to parent |
| --- | --- |
| chain 1 S283D S286D | 0.16 |
